{
  "source": "patent US7803572B2",
  "about": "“Protease detection assay” (Atlas Genetics, Ltd., priority 2003, dated 2010)",
  "key": {"[1]": {"target": "T1, type II bovine pancreas α-chymotrypsin (Bos taurus, UniProt P00766)", "T1 construct": "purchased Sigma; host or cells: bovine pancreas", "experiment": "Digestion of Fc-BSA with α-chymotrypsin, differential pulse voltammetry", "type": "biochemical", "description": "(§1) Protease assays were performed as follows unless stated otherwise. […] Samples were incubated at 37° C. for 1 hour.\nA digestion of Fc-BSA with α-chymotrypsin was carried out as described above. […] The positive reaction has a peak position of 438 mV and a peak height of 4.48×10^−7 A; the no α-chymotrypsin control reaction has a peak position of 432 mV and a peak height of 2.55×10^−8 A."}, "porcine pancreas trypsin": {"target": "T2, porcine pancreas trypsin (Sus scrofa, UniProt P00761)", "T2 construct": "purchased Sigma; host or cells: porcine pancreas", "T2 sequence (P00761 9-231)": "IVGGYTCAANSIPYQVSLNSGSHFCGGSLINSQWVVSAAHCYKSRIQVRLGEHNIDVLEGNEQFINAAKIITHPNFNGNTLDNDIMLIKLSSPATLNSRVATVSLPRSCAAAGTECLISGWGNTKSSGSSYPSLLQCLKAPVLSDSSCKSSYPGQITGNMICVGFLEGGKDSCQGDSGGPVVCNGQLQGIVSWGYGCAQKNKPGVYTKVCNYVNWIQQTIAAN", "experiment": "Digestion of labelled protein with trypsin, differential pulse voltammetry", "type": "biochemical", "description": "as §1\nA digestion of Fc-BSA with trypsin was carried out as described above. […] The positive reaction has a peak position of 435 mV and a peak height of 4.58×10^−7 A; the no trypsin control reaction has a peak position of 432 mV and a peak height of 2.55×10^−8 A.\nA digestion of unlabelled BSA with trypsin was carried out in the same manner as for the labelled molecules as described above. The differential pulse voltammogram results are shown in FIG. 10 in which (a) is the trace for a no-trypsin control reaction and (b) is the trace for trypsin BSA reaction.\nA digestion of FcU-BSA with trypsin was carried out as described above. […] The positive reaction has a peak position of 97 mV and a peak height of 5.01×10^−7 A; there was no peak in the no-trypsin control reaction. […]\nFive digestions of Fc-BSA with trypsin were carried out using the protocol described above. As described in the general protocol, 2 μl of enzyme was used for each 200 μl reaction; for reaction (i) 10 mg/ml enzyme solution was used; reaction (ii): 1 mg/ml; reaction (iii) 0.1 mg/ml; reaction (iv) 0.01 mg/ml and reaction (v) was a no-trypsin control. The differential pulse voltammogram results are shown in FIG. 14 with baseline correction.\nFive digestions of Fc-BSA with trypsin were carried out using the protocol described above. In reaction (i) the incubation at 37° was carried out for 60 minutes, in reaction (ii) for 15 minutes, in reaction (iii) for 5 minutes, in reaction (iv) for 2 minutes and reaction (v) was a 0 minutes no-trypsin control. The differential pulse voltammogram results are shown in FIG. 15 with baseline correction."}, "trypsin": {"target": "T3, trypsin (Sus scrofa, UniProt P00761)", "T3 construct": "purchased Sigma; host or cells: porcine pancreas", "T3 sequence (P00761 9-231)": "as above", "experiment": "Amperometric analysis of trypsin digestion", "type": "biochemical, porcine", "details": "amperometric time course trace", "description": "Four digestion reactions were carried out with real-time amperometric analysis. […] Tryspin was resuspended in HCl (1 mM, pH 3.0), papain and carboxypeptidase were resuspended in NaCl (100 mM). […] The amperometry conditions were as set out in Tables 2 and 3.\nIn FIG. 17, there is shown the amperometric time course trace for the trypsin digestion of Fc-BSA. […] As the movement of the species present in the solution reaches a steady state, the current response appears to decay.\nIn FIG. 18, there is shown the amperometric time course trace for the papain digestion of FcU-BSA. […] As the movement of the species present in the solution reaches a steady state, the current response appears to decay. […] The amperometric time course trace for the trypsin digestion of FcU-BSA is not illustrated in the drawings but was analogous."}, "[2]": {"details": "no α-chymotrypsin control reaction"}, "[3]": {"details": "positive reaction, 37° C. for 1 hour"}, "[4]": {"details": "Example 6 reaction (i): 2 μl of 10 mg/ml enzyme solution"}, "[5]": {"details": "Example 6 reaction (ii): 1 mg/ml enzyme solution"}, "[6]": {"details": "Example 6 reaction (iii): 0.1 mg/ml enzyme solution"}, "[7]": {"details": "Example 6 reaction (iv): 0.01 mg/ml enzyme solution"}, "[8]": {"details": "Example 6 reaction (v): no-trypsin control"}, "[9]": {"details": "Example 7 reaction (i): incubation at 37° for 60 minutes"}, "[10]": {"details": "Example 7 reaction (ii): 15 minutes"}, "[11]": {"details": "Example 7 reaction (iii): 5 minutes"}, "[12]": {"details": "Example 7 reaction (iv): 2 minutes"}, "[13]": {"details": "Example 7 reaction (v): 0 minutes no-trypsin control"}, "[14]": {"details": "positive reaction, 2 μl enzyme (10 mgml^−1), 37° C. for 1 hour"}},
  "data": [
    {"substance": "Fc-BSA: Bovine serum albumin labelled with ferrocene methanoyl groups via N-hydroxysuccinimide ester; estimated 10 to 20 ferrocenes per BSA", "values": [
      {"measurement": "peak height", "setting": "[1]; [2]", "result": "2.55×10^−8 A"},
      {"measurement": "peak position", "setting": "[1]; [2]", "result": 432, "unit": "mV"},
      {"measurement": "peak height", "setting": "[1]; [3]", "result": "4.48×10^−7 A"},
      {"measurement": "peak position", "setting": "[1]; [3]", "result": 438, "unit": "mV"},
      {"measurement": "peak height", "setting": "porcine pancreas trypsin; [4]", "result": "5.42×10^−7 A"},
      {"measurement": "peak position", "setting": "porcine pancreas trypsin; [4]", "result": 430, "unit": "mV"},
      {"measurement": "peak height", "setting": "porcine pancreas trypsin; [5]", "result": "2.29×10^−7 A"},
      {"measurement": "peak position", "setting": "porcine pancreas trypsin; [5]", "result": 428, "unit": "mV"},
      {"measurement": "peak height", "setting": "porcine pancreas trypsin; [6]", "result": "1.04×10^−7 A"},
      {"measurement": "peak position", "setting": "porcine pancreas trypsin; [6]", "result": 429, "unit": "mV"},
      {"measurement": "peak height", "setting": "porcine pancreas trypsin; [7]", "result": "7.53×10^8 A"},
      {"measurement": "peak position", "setting": "porcine pancreas trypsin; [7]", "result": 429, "unit": "mV"},
      {"measurement": "peak height", "setting": "porcine pancreas trypsin; [8]", "result": "3.17×10^−9 A"},
      {"measurement": "peak position", "setting": "porcine pancreas trypsin; [8]", "result": 448, "unit": "mV"},
      {"measurement": "peak height", "setting": "porcine pancreas trypsin; [9]", "result": "2.49×10^−7 A"},
      {"measurement": "peak position", "setting": "porcine pancreas trypsin; [9]", "result": 435, "unit": "mV"},
      {"measurement": "peak height", "setting": "porcine pancreas trypsin; [10]", "result": "1.88×10^−7 A"},
      {"measurement": "peak position", "setting": "porcine pancreas trypsin; [10]", "result": 429, "unit": "mV"},
      {"measurement": "peak height", "setting": "porcine pancreas trypsin; [11]", "result": "1.57×10^−7 A"},
      {"measurement": "peak position", "setting": "porcine pancreas trypsin; [11]", "result": 435, "unit": "mV"},
      {"measurement": "peak height", "setting": "porcine pancreas trypsin; [12]", "result": "1.04×10^−7 A"},
      {"measurement": "peak position", "setting": "porcine pancreas trypsin; [12]", "result": 428, "unit": "mV"},
      {"measurement": "peak height", "setting": "porcine pancreas trypsin; [13]", "result": "2.11×10^−8 A"},
      {"measurement": "peak position", "setting": "porcine pancreas trypsin; [13]", "result": 460, "unit": "mV"},
      {"measurement": "peak height", "setting": "porcine pancreas trypsin; no-trypsin control reaction", "result": "2.55×10^−8 A"},
      {"measurement": "peak position", "setting": "porcine pancreas trypsin; no-trypsin control reaction", "result": 432, "unit": "mV"},
      {"measurement": "peak height", "setting": "porcine pancreas trypsin; [14]", "result": "4.58×10^−7 A"},
      {"measurement": "peak position", "setting": "porcine pancreas trypsin; [14]", "result": 435, "unit": "mV"},
      {"measurement": "factor by which current observed at 435 mV increases upon digestion", "setting": "porcine pancreas trypsin; trypsin digestion vs no-trypsin control, FIG. 3", "result": 18},
      {"measurement": "faradaic current response over time after addition of the enzyme", "setting": "trypsin", "result": "increase in current"}
    ]}
  ]
}
